Measured values taken from the supplement of paper PMC9170038.

Test system: MS2 coat protein
Assay: apparent KD of MS2 coat protein; designed switch direction (-1 OFF switch, 1 ON switch): 1; higher = weaker reporter binding
How it was run: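 Three titration conditions were used: no input, 200 uM small-molecule ligand, and an oligonucleotide input. In each, SNAP-549-labelled MS2 coat protein was raised from 0.7 or 1.5 nM, doubling, to 3 µM over designed RNA switches transcribed on Illumina chips by stalled E. coli RNA polymerase. Curve fits of normalised cluster fluorescence gave values whose per-design median over clusters is the apparent KD.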

[1] = input ligand: microRNA oligo, concentration not stated
[2] = Eterna round: R95, input ligand: FMN 200 uM
[3] = Eterna round: R95, input ligand: microRNA oligo, concentration not stated
[4] = Eterna round: R95, input ligand: none

Sequence | apparent KD of MS2 coat protein (input ligand: FMN 200 uM) [nM] | apparent KD of MS2 coat protein [1] [nM] | apparent KD of MS2 coat protein (input ligand: none) [nM] | apparent KD of MS2 coat protein [2] [nM] | apparent KD of MS2 coat protein [3] [nM] | apparent KD of MS2 coat protein [4] [nM]
UGAAUAGUCACAGGAUAUCAUGCGAAAAUUGCGUGAGAAGGGUGGGUGUUGUGCUCAAAGUGCUACAUGAGGAUCACCCAUGUU [SameState NG1 #41] (Eterna round: R96, puzzle: Same State NG 1) | 1540 | 638 | 1210 |  |  | 
UGAAUAGUGAUAGGAUAUACAUGAGGAAUCCUCGUAGAAGGAUCAUAACAUGAGGAUCACCCAUGUAGCCGUCGAAAGACGGCA [Mat - Same State NG 1 - JL mod - D58] (Eterna round: R96, puzzle: Same State NG 1) | 200 | 72 | 122 |  |  | 
UGAAUAGUUACAGGAUAUGAGCCGUAAAUUGGGUCAGAAGGGUGGGUGUUCUGCGCUGUGUGUUACAUGAGGAUCACCCAUGUU [SameState NG1 #31] (Eterna round: R96, puzzle: Same State NG 1) | 162 | 34.9 | 63.4 |  |  | 
UGAAUAUUUACAGGAUAUGAGUUGUAUAGUGGAUCAGAAGGGUGGGUGUUUUGCACGGUGUGUUACAUGAGGAUCACCCAUGUU [SameState NG1 #26] (Eterna round: R96, puzzle: Same State NG 1) | 412 | 206 | 196 |  |  | 
UGACACACGGCAGGAUAUCGAUUCCAAAGGAAUCGAGAAGGGCCUCAUGUCGUGGAAACGUGACAUGAGGAUCACCCAUGUUGC [Omei SS(NG)1 Cv15] (Eterna round: R96, puzzle: Same State NG 1) | 222 | 15.8 | 96 |  |  | 
UGACACACGGCAGGAUAUGCUUAGCAAAGCUAAGCAGAAGGGCCUCAUGUCGUGGAAAUGUGACAUGAGGAUCACCCAUGUCGC [Omei SS(NG)1 Cv5] (Eterna round: R96, puzzle: Same State NG 1) | 27.3 | 17.8 | 29.9 |  |  | 
UGAGCCGGCACUGAGGAUAUUCAUAUUUAAACAUGAGGAUCACCCAUGUAGGCCAGAAGGCCUUGGGAGAAGGCAGGUCGGCUCC [salish99_ss2_r3_079] (puzzle: Same State 2) |  |  |  | 25.7 | 264 | 459
UGAUCGCUUGGAGGAUAUCCAACUAUCCUAGUUGGAGAAGGCCAAGCUACAGAGCUAAGCUUGGAAGUCACUUCGAAUCAACAC [pwkr ssNG1 F9.4] (Eterna round: R96, puzzle: Same State NG 1) | 2.23 | 129 | 155 |  |  | 
UGCCGGAUACCGACUACAUGAGGAUCACCCAUGUUAUCUCGUUAGGAUAUACUAACAACAGAUUAGUAGAAGGGACGCGGGCUU [Eternabot solution 23] (Eterna round: R96, puzzle: Same State NG 3) | 25.5 | 24.6 | 30.7 |  |  | 
UGCUAGUGGGUAGGAUAUCUAGGAUAUGGGAAAGACUAAGUCUGUAGGUCACCUAACCCAGAAGGAGAGAAGGACCAUUCAGCU [pwkr ssNG2 2FMN + F9.26] (Eterna round: R96, puzzle: Same State NG 2) | 165 | 22.5 | 38 |  |  | 
UGCUUCGUGUAAGGAUAUGCUGCCGUUUCGGCUGCAGAAGGUACUAUAAUACAUGAGGAUCACCCAUGUCUCUCGCUUUGCGGG [salish99_SSng1_r04_305] (Eterna round: R96, puzzle: Same State NG 1) |  | 42.1 |  |  |  | 
UGGAGACGUCAAGGAUAUGCUACCGUUUCGGUAGCAGAAGGUGAUCACAUGAGGAUCACCCAUGUAUGCAUGCGUGAGCGUGCU [JL SSNG1 3.52] (Eterna round: R96, puzzle: Same State NG 1) | 72.1 | 2.49 | 6.24 |  |  | 
UGGAUCUAGGCUUGCCUGGGUCCAUGCUGACAUGAGGAUCACCCAUGUGCAUCCUACAAGCUUUUUGCUUGUCUGCC (Eterna round: R96, puzzle: Sensor for hsa-mir-208a) | 416 | 267 | 216 |  |  | 
UGGAUCUAGGCUUGCCUGGGUCCAUGCUGACAUGAGGAUCACCCAUGUGCAUCCUACAAGCUUUUUGCUUGUCUGCC (puzzle: Sensor for hsa-mir-208a) |  |  |  | 146 | 122 | 93.7
UGGCUCAGACGAGGAUAUGGUCAUGGCGCUUCGGCGCAUACAUGAGGAUCACCCAUGUAGGGUGAUCAGAAGGCGUCUGAGCCA [SSNG2/9-A2] (Eterna round: R96, puzzle: Same State NG 2) | 87.2 | 573 | 715 |  |  | 
UGGCUGAGUCGAGGAUAUGAUCUUCAUAUAUAUACAUGAGGAUCACCCAUGUAUAAUUACAUGGAUCAGAAGGCGACUCAGCCA [SSNG2/13-A1] (Eterna round: R96, puzzle: Same State NG 2) |  | 22.9 |  |  |  | 

Sequence | apparent KD of MS2 coat protein (input ligand: FMN 200 uM) [nM] | apparent KD of MS2 coat protein [1] [nM] | apparent KD of MS2 coat protein (input ligand: none) [nM] | apparent KD of MS2 coat protein [2] [nM] | apparent KD of MS2 coat protein [3] [nM] | apparent KD of MS2 coat protein [4] [nM]
UGGUAACAUGAGGAUCACCCAUGUCAAAUGAAUCGAGGAUAUGGGAACUAACAACACAAACUAGAAGGCGAACUUG [Altered State 1-9 - Jieux - Same State 1] (puzzle: Same State 1) |  |  |  | 32.6 | 39.6 | 91.5
UGGUACAUGGGAGGAUAUCAUGUAGAAACAUGAGGAUCACCCAUGUUGAUGGAGACAUCGGAGAUUGAGAAGGCCCAUGUACCU [JL SSNG1 3.57] (Eterna round: R96, puzzle: Same State NG 2) | 15.6 | 33.6 | 46 |  |  | 
UGGUACAUGGGAGGAUAUGGGCAAGGGACAUGAGGAUCACCCAUGUAUUAAAUGCCGAGAGGCAUCUAGAAGGCCCAUGUACCU [JL SSNG1 3.88] (Eterna round: R96, puzzle: Same State NG 2) | 17.8 | 79.8 | 173 |  |  | 
UGGUACAUGGGAGGAUAUGGGCAUGAGACAUGAGGAUCACCCAUGUUAUAAAAGCCGAGAGGCAUCUAGAAGGCCCAUGUACCU [JL SSNG1 3.91] (Eterna round: R96, puzzle: Same State NG 2) | 15.2 | 95.2 | 139 |  |  | 
UGUAAACAUGAGGAUCACCCAUGUUUUUUCAUGGGAGGAUAUCUGAGUUAAGUAUAUUAAGGAGAAGGCCUAUUGU [× ×•×ª×• ×ž×“×™× ×” × ×—×ª-02] (puzzle: Same State 1) |  |  |  | 83.8 | 78 | 286
UGUACCUGCACAGGAUAUCAUGCGAAAAUUGCGUGAGAAGGGUGAAUACUGUCUUUCUAAGAGUACAUGAGGAUCACCCAUGUA [SameState NG1 #61] (Eterna round: R96, puzzle: Same State NG 1) | 156 | 91.8 | 119 |  |  | 
UGUCCAGCCUGAGCUGGACAAAAGCAUGUACAUGAGGAUCACCCAUGUUCAUGUACAAGCUUUUUGCUCGUCUUAUU [salish99_208a_r3_048] (puzzle: Sensor for hsa-mir-208a) |  |  |  | 465 | 14.1 | 491
UGUGUCAUAGGUUUUUUAGCUCGUCUGAUACAUGAGGAUCACCCAUGUUAUAGCCCUGUGCUUGCGCAGGGCUGAGG [JL shm-2.xx] (puzzle: Sensor for hsa-mir-208a) |  |  |  | 50.2 | 36.6 | 56.7
UGUUGUAUUACAGGAUAUCUAGUAUGUUUAUUUAGAGAAGGGUAUUCACAUGAGGAUCACCCAUGUAUAUACGAGGAAGUUGUG [JMF's solution 38] (Eterna round: R96, puzzle: Same State NG 1) |  | 30.8 |  |  |  | 
UGUUGUAUUACAGGAUAUCUAGUAUUAUUAUUUAGAGAAGGGUAUUCACAUGAGGAUCACCCAUGUAUAUACGAGGAAGUUGUG [JMF's solution 39] (Eterna round: R96, puzzle: Same State NG 1) |  | 28.2 |  |  |  | 
UGUUGUAUUACAGGAUAUCUAUUAGUUAUAUUUAGAGAAGGGUAUUCACAUGAGGAUCACCCAUGUAUAUACGAGGAAGUUGUG [JMF's solution 91] (Eterna round: R96, puzzle: Same State NG 1) |  | 42.3 |  |  |  | 
UGUUGUAUUACAGGAUAUCUAUUGUUUUUGUUUAGAGAAGGGUAUUCACAUGAGGAUCACCCAUGUAUAUACGAGGAAGUUGUG [JMF's solution 80] (Eterna round: R96, puzzle: Same State NG 1) |  | 45 |  |  |  | 
UUAAAACAUGAGGAUCACCCAUGUAAUAUAAUGGGAGGAUAUCUGAUUUAAUUAAAUUUAAGAGAAGGCCUAAAUU [Mat - Same State 1 - Mod of Eli - D55] (puzzle: Same State 1) |  |  |  | 28.9 | 128 | 169
UUAAAACAUGAGGAUCACCCAUGUCAACAAAGUCGAGGAUAUGGGCAAAUAAAAUAAGAACCAGAAGGCGAAUAAC [salish99_SS1_r3_007] (puzzle: Same State 1) |  |  |  | 43.9 | 422 | 390
UUAAGCCACGGGCAGGAUAUGUAUUAAAGUACAUGAGGAUCACCCAUGUGCAGGUGUAACACCUGACAGAAGGGCCAAUCGCGGC [Soondi - 3] (puzzle: Same State 2) |  |  |  | 16 | 68 | 72.7
